# According to IntAct's records for PubMed 35512704:
# B1: Speckle-type POZ protein (Homo sapiens), O43791 (parent)
# chain: MSRVPSPPPPAEMSSGPVAESWCYTQIKVVKFSYMWTINNFSFCREEMGEVIKSSTFSSGANDKLKWCLRVNPKGLDEESKDYLSLYLLLVSCPKSEVRAKFKFSILNAKGEETKAMESQRAYRFVQGKDWGFKKFIRRDFLLDEANGLLPDDKLTLFCEVSVVQDSVNISGQNTMNMVKVPECRLADELGGLWENSRFTDCCLCVAGQEFQAHKAILAARSPVFSAMFEHEMEESKKNRVEINDVEPEVFKEMMCFIYTGKAPNLDKMADDLLAAADKYALERLKVMCEDALCSNLSVENAAEILILADLHSADQLKTQAVDFINYHASDVLETSGWKSMVVSHPHLVAEAYRSLASAQCPFLGPPRKRLKQS
# Variants of: B1
# Details: with cdc27_human CDC27, P30260
# Sequence of cdc27_human CDC27, P30260 (P30260 whole entry): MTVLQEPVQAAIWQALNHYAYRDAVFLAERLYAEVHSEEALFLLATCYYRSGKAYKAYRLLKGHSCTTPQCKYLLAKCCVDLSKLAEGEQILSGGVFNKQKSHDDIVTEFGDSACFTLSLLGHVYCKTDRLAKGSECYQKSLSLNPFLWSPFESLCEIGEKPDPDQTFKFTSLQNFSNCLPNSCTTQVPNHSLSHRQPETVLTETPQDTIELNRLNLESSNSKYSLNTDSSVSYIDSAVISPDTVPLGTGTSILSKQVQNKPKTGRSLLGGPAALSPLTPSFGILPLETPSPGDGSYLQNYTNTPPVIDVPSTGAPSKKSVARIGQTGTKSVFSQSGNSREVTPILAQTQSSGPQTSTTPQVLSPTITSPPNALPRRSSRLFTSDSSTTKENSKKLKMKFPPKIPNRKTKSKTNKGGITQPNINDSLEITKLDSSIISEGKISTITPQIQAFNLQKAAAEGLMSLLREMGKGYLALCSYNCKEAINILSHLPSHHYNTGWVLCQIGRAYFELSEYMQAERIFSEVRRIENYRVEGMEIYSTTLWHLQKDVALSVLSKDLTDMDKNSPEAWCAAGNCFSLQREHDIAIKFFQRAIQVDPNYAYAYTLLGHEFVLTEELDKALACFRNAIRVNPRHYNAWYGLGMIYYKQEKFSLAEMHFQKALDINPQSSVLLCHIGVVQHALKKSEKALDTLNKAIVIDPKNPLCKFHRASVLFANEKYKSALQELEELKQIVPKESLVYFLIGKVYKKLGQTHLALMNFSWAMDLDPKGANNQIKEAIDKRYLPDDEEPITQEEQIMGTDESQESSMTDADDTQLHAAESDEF
row,effect of a mutation on the interaction,Variant
1,with no effect,MSRVPSPPPPAEMSSGPVAESWCYTQIKVVKFSYMWTINNFSFCREEMGEVIKSSTFSSGANDKLKWCLRVNPKGLDEESKDYLSLCLLLVSCPKSEVRAKFKFSILNAKGEETKAMESQRAYRFVQGKDWGFKKFIRRDFLLDEANGLLPDDKLTLFCEVSVVQDSVNISGQNTMNMVKVPECRLADELGGLWENSRFTDCCLCVAGQEFQAHKAILAARSPVFSAMFEHEMEESKKNRVEINDVEPEVFKEMMCFIYTGKAPNLDKMADDLLAAADKYALERLKVMCEDALCSNLSVENAAEILILADLHSADQLKTQAVDFINYHASDVLETSGWKSMVVSHPHLVAEAYRSLASAQCPFLGPPRKRLKQS [Y87C]

# Variants of: B1
# Details: with cdc73_human CDC73, Q6P1J9
row,effect of a mutation on the interaction,Variant
1,with no effect,MSRVPSPPPPAEMSSGPVAESWCYTQIKVVKFSYMWTINNFSFCREEMGEVIKSSTFSSGANDKLKWCLRVNPKGLDEESKDYLSLCLLLVSCPKSEVRAKFKFSILNAKGEETKAMESQRAYRFVQGKDWGFKKFIRRDFLLDEANGLLPDDKLTLFCEVSVVQDSVNISGQNTMNMVKVPECRLADELGGLWENSRFTDCCLCVAGQEFQAHKAILAARSPVFSAMFEHEMEESKKNRVEINDVEPEVFKEMMCFIYTGKAPNLDKMADDLLAAADKYALERLKVMCEDALCSNLSVENAAEILILADLHSADQLKTQAVDFINYHASDVLETSGWKSMVVSHPHLVAEAYRSLASAQCPFLGPPRKRLKQS [Y87C]

# Variants of: B1
# Details: with cdk4_human CDK4, P11802
# Sequence of cdk4_human CDK4, P11802 (P11802 whole entry): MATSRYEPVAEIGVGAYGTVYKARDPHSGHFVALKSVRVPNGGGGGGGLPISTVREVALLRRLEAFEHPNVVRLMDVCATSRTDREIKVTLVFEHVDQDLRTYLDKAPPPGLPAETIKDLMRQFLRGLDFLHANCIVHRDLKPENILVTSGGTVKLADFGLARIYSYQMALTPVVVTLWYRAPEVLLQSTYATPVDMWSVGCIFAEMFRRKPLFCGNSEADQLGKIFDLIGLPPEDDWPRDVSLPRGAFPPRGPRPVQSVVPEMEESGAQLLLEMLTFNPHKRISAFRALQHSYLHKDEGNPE
row,effect of a mutation on the interaction,Variant
1,with no effect,MSRVPSPPPPAEMSSGPVAESWCYTQIKVVKFSYMWTINNFSFCREEMGEVIKSSTFSSGANDKLKWCLRVNPKGLDEESKDYLSLCLLLVSCPKSEVRAKFKFSILNAKGEETKAMESQRAYRFVQGKDWGFKKFIRRDFLLDEANGLLPDDKLTLFCEVSVVQDSVNISGQNTMNMVKVPECRLADELGGLWENSRFTDCCLCVAGQEFQAHKAILAARSPVFSAMFEHEMEESKKNRVEINDVEPEVFKEMMCFIYTGKAPNLDKMADDLLAAADKYALERLKVMCEDALCSNLSVENAAEILILADLHSADQLKTQAVDFINYHASDVLETSGWKSMVVSHPHLVAEAYRSLASAQCPFLGPPRKRLKQS [Y87C]

# Variants of: B1
# Details: with cdk6_human CDK6, Q00534
# Sequence of cdk6_human CDK6, Q00534 (Q00534 whole entry): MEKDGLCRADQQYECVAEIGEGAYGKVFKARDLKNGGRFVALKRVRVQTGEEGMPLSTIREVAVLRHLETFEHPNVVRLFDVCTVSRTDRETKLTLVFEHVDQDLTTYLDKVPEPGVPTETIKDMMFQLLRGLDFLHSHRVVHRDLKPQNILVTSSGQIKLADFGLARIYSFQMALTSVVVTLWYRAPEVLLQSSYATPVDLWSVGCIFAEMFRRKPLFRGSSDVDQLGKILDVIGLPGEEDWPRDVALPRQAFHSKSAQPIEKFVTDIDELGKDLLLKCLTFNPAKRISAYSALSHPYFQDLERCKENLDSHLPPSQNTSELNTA
row,effect of a mutation on the interaction,Variant
1,with no effect,MSRVPSPPPPAEMSSGPVAESWCYTQIKVVKFSYMWTINNFSFCREEMGEVIKSSTFSSGANDKLKWCLRVNPKGLDEESKDYLSLCLLLVSCPKSEVRAKFKFSILNAKGEETKAMESQRAYRFVQGKDWGFKKFIRRDFLLDEANGLLPDDKLTLFCEVSVVQDSVNISGQNTMNMVKVPECRLADELGGLWENSRFTDCCLCVAGQEFQAHKAILAARSPVFSAMFEHEMEESKKNRVEINDVEPEVFKEMMCFIYTGKAPNLDKMADDLLAAADKYALERLKVMCEDALCSNLSVENAAEILILADLHSADQLKTQAVDFINYHASDVLETSGWKSMVVSHPHLVAEAYRSLASAQCPFLGPPRKRLKQS [Y87C]

# Variants of: B1
# Details: with cdn2c_human CDKN2C
row,effect of a mutation on the interaction,Variant
1,with no effect,MSRVPSPPPPAEMSSGPVAESWCYTQIKVVKFSYMWTINNFSFCREEMGEVIKSSTFSSGANDKLKWCLRVNPKGLDEESKDYLSLCLLLVSCPKSEVRAKFKFSILNAKGEETKAMESQRAYRFVQGKDWGFKKFIRRDFLLDEANGLLPDDKLTLFCEVSVVQDSVNISGQNTMNMVKVPECRLADELGGLWENSRFTDCCLCVAGQEFQAHKAILAARSPVFSAMFEHEMEESKKNRVEINDVEPEVFKEMMCFIYTGKAPNLDKMADDLLAAADKYALERLKVMCEDALCSNLSVENAAEILILADLHSADQLKTQAVDFINYHASDVLETSGWKSMVVSHPHLVAEAYRSLASAQCPFLGPPRKRLKQS [Y87C]

# Variants of: B1
# Details: with chd1l_human CHD1L
row,effect of a mutation on the interaction,Variant
1,with no effect,MSRVPSPPPPAEMSSGPVAESWCYTQIKVVKFSYMWTINNFSFCREEMGEVIKSSTFSSGANDKLKWCLRVNPKGLDEESKDYLSLCLLLVSCPKSEVRAKFKFSILNAKGEETKAMESQRAYRFVQGKDWGFKKFIRRDFLLDEANGLLPDDKLTLFCEVSVVQDSVNISGQNTMNMVKVPECRLADELGGLWENSRFTDCCLCVAGQEFQAHKAILAARSPVFSAMFEHEMEESKKNRVEINDVEPEVFKEMMCFIYTGKAPNLDKMADDLLAAADKYALERLKVMCEDALCSNLSVENAAEILILADLHSADQLKTQAVDFINYHASDVLETSGWKSMVVSHPHLVAEAYRSLASAQCPFLGPPRKRLKQS [Y87C]

# Variants of: B1
# Details: with chd2_human CHD2, O14647
# Sequence of chd2_human CHD2, O14647 (O14647 whole entry): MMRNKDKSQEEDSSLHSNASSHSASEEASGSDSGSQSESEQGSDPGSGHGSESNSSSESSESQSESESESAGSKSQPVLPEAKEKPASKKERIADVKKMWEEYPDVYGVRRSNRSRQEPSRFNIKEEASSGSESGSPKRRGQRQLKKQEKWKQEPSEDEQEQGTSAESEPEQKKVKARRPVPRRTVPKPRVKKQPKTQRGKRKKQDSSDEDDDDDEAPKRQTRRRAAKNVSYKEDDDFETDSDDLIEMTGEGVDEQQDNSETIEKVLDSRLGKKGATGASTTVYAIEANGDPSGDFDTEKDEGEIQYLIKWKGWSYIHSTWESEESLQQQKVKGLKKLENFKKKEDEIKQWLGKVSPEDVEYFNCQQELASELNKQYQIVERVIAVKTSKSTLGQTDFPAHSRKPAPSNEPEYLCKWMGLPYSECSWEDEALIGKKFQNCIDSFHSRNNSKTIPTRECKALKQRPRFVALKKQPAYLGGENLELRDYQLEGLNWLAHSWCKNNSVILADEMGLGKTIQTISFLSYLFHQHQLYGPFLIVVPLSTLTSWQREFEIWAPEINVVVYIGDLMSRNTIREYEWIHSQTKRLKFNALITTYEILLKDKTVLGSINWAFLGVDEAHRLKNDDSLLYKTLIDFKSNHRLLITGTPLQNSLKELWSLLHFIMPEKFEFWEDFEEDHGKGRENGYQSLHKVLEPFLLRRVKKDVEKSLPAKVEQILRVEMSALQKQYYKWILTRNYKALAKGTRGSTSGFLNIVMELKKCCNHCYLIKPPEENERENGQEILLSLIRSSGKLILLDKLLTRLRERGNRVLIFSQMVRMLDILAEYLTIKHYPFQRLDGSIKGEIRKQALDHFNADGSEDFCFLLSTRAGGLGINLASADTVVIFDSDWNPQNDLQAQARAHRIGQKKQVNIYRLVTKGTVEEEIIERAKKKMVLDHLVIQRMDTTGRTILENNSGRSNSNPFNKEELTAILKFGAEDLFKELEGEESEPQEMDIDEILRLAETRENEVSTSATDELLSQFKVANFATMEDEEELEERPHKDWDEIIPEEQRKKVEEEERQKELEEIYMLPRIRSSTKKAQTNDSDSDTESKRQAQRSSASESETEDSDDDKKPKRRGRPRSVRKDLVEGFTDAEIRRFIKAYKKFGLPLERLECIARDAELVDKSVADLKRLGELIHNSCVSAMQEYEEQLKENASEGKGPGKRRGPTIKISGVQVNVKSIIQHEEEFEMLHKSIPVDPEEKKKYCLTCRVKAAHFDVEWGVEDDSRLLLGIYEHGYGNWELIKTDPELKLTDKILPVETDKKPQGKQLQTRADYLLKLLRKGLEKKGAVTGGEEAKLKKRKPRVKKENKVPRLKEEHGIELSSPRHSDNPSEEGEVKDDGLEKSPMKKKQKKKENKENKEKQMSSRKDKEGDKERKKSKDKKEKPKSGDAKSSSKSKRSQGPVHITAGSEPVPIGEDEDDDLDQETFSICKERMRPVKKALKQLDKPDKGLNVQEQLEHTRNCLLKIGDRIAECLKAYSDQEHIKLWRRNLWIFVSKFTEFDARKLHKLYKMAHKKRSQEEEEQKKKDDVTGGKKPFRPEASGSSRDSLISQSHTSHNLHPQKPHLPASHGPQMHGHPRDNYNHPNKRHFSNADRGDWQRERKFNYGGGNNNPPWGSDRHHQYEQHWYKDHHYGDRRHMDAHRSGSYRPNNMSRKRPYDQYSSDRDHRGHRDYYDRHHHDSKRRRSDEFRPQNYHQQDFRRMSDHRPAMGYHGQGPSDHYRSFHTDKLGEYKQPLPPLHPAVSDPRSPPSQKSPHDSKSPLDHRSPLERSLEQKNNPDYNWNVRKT
row,effect of a mutation on the interaction,Variant
1,with no effect,MSRVPSPPPPAEMSSGPVAESWCYTQIKVVKFSYMWTINNFSFCREEMGEVIKSSTFSSGANDKLKWCLRVNPKGLDEESKDYLSLCLLLVSCPKSEVRAKFKFSILNAKGEETKAMESQRAYRFVQGKDWGFKKFIRRDFLLDEANGLLPDDKLTLFCEVSVVQDSVNISGQNTMNMVKVPECRLADELGGLWENSRFTDCCLCVAGQEFQAHKAILAARSPVFSAMFEHEMEESKKNRVEINDVEPEVFKEMMCFIYTGKAPNLDKMADDLLAAADKYALERLKVMCEDALCSNLSVENAAEILILADLHSADQLKTQAVDFINYHASDVLETSGWKSMVVSHPHLVAEAYRSLASAQCPFLGPPRKRLKQS [Y87C]

# Variants of: B1
# Details: with chk2_human CHEK2, O96017
# Sequence of chk2_human CHEK2, O96017 (O96017 whole entry): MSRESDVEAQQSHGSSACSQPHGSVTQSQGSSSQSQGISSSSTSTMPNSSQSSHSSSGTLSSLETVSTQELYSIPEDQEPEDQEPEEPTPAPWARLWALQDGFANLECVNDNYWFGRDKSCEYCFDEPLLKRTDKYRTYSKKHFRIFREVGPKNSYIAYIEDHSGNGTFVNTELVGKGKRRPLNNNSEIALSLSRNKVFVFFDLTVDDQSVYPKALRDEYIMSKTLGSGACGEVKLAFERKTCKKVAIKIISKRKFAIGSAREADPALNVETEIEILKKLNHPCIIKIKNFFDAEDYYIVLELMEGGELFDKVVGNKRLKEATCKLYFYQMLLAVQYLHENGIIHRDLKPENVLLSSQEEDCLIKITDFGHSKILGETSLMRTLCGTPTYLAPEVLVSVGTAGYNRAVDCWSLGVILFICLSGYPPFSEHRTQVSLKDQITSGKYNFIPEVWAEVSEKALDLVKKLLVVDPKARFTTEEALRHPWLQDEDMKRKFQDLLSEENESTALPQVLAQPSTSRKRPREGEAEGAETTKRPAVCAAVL
row,effect of a mutation on the interaction,Variant
1,with no effect,MSRVPSPPPPAEMSSGPVAESWCYTQIKVVKFSYMWTINNFSFCREEMGEVIKSSTFSSGANDKLKWCLRVNPKGLDEESKDYLSLCLLLVSCPKSEVRAKFKFSILNAKGEETKAMESQRAYRFVQGKDWGFKKFIRRDFLLDEANGLLPDDKLTLFCEVSVVQDSVNISGQNTMNMVKVPECRLADELGGLWENSRFTDCCLCVAGQEFQAHKAILAARSPVFSAMFEHEMEESKKNRVEINDVEPEVFKEMMCFIYTGKAPNLDKMADDLLAAADKYALERLKVMCEDALCSNLSVENAAEILILADLHSADQLKTQAVDFINYHASDVLETSGWKSMVVSHPHLVAEAYRSLASAQCPFLGPPRKRLKQS [Y87C]

# Variants of: B1
# Details: with ch3l1_human CHI3L1, P36222
# Sequence of ch3l1_human CHI3L1, P36222 (P36222 whole entry): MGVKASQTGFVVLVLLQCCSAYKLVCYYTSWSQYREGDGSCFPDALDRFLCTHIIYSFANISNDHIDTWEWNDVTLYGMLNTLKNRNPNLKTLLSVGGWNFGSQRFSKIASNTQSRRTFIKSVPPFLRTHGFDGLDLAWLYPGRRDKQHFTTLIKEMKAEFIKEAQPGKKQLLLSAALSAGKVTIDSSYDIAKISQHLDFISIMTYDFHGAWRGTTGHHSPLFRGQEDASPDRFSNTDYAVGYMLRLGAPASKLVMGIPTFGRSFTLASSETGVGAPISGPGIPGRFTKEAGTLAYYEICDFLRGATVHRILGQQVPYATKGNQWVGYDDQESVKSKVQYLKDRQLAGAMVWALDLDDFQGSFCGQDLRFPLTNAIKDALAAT
row,effect of a mutation on the interaction,Variant
1,with no effect,MSRVPSPPPPAEMSSGPVAESWCYTQIKVVKFSYMWTINNFSFCREEMGEVIKSSTFSSGANDKLKWCLRVNPKGLDEESKDYLSLCLLLVSCPKSEVRAKFKFSILNAKGEETKAMESQRAYRFVQGKDWGFKKFIRRDFLLDEANGLLPDDKLTLFCEVSVVQDSVNISGQNTMNMVKVPECRLADELGGLWENSRFTDCCLCVAGQEFQAHKAILAARSPVFSAMFEHEMEESKKNRVEINDVEPEVFKEMMCFIYTGKAPNLDKMADDLLAAADKYALERLKVMCEDALCSNLSVENAAEILILADLHSADQLKTQAVDFINYHASDVLETSGWKSMVVSHPHLVAEAYRSLASAQCPFLGPPRKRLKQS [Y87C]

# Variants of: B1
# Details: with csf1r_human CSF1R
row,effect of a mutation on the interaction,Variant
1,with no effect,MSRVPSPPPPAEMSSGPVAESWCYTQIKVVKFSYMWTINNFSFCREEMGEVIKSSTFSSGANDKLKWCLRVNPKGLDEESKDYLSLCLLLVSCPKSEVRAKFKFSILNAKGEETKAMESQRAYRFVQGKDWGFKKFIRRDFLLDEANGLLPDDKLTLFCEVSVVQDSVNISGQNTMNMVKVPECRLADELGGLWENSRFTDCCLCVAGQEFQAHKAILAARSPVFSAMFEHEMEESKKNRVEINDVEPEVFKEMMCFIYTGKAPNLDKMADDLLAAADKYALERLKVMCEDALCSNLSVENAAEILILADLHSADQLKTQAVDFINYHASDVLETSGWKSMVVSHPHLVAEAYRSLASAQCPFLGPPRKRLKQS [Y87C]

# Variants of: B1
# Details: with ctla4_human CTLA4, P16410
row,effect of a mutation on the interaction,Variant
1,with no effect,MSRVPSPPPPAEMSSGPVAESWCYTQIKVVKFSYMWTINNFSFCREEMGEVIKSSTFSSGANDKLKWCLRVNPKGLDEESKDYLSLCLLLVSCPKSEVRAKFKFSILNAKGEETKAMESQRAYRFVQGKDWGFKKFIRRDFLLDEANGLLPDDKLTLFCEVSVVQDSVNISGQNTMNMVKVPECRLADELGGLWENSRFTDCCLCVAGQEFQAHKAILAARSPVFSAMFEHEMEESKKNRVEINDVEPEVFKEMMCFIYTGKAPNLDKMADDLLAAADKYALERLKVMCEDALCSNLSVENAAEILILADLHSADQLKTQAVDFINYHASDVLETSGWKSMVVSHPHLVAEAYRSLASAQCPFLGPPRKRLKQS [Y87C]

# Variants of: B1
# Details: with cul3_human CUL3, Q13618
# Sequence of cul3_human CUL3, Q13618 (Q13618 whole entry): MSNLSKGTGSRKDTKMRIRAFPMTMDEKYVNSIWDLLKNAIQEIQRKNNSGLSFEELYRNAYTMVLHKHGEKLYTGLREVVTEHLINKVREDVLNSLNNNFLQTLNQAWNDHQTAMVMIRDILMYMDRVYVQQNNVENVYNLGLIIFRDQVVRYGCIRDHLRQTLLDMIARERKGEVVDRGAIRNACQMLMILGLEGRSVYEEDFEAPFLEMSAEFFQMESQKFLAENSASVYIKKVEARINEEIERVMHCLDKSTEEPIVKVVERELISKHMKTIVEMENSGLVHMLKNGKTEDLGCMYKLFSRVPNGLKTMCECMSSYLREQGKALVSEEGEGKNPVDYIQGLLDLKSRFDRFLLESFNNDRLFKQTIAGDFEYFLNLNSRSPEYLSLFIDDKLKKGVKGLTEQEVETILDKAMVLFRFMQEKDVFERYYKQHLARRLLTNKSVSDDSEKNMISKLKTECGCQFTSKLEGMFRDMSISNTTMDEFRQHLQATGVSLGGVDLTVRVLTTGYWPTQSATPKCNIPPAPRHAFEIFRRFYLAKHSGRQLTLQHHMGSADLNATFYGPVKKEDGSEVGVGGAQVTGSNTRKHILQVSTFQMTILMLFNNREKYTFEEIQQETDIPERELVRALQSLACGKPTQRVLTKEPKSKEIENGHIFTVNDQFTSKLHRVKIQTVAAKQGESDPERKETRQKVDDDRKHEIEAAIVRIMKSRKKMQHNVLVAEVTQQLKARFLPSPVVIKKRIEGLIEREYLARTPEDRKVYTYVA
row,effect of a mutation on the interaction,Variant
1,with no effect,MSRVPSPPPPAEMSSGPVAESWCYTQIKVVKFSYMWTINNFSFCREEMGEVIKSSTFSSGANDKLKWCLRVNPKGLDEESKDYLSLCLLLVSCPKSEVRAKFKFSILNAKGEETKAMESQRAYRFVQGKDWGFKKFIRRDFLLDEANGLLPDDKLTLFCEVSVVQDSVNISGQNTMNMVKVPECRLADELGGLWENSRFTDCCLCVAGQEFQAHKAILAARSPVFSAMFEHEMEESKKNRVEINDVEPEVFKEMMCFIYTGKAPNLDKMADDLLAAADKYALERLKVMCEDALCSNLSVENAAEILILADLHSADQLKTQAVDFINYHASDVLETSGWKSMVVSHPHLVAEAYRSLASAQCPFLGPPRKRLKQS [Y87C]

# Variants of: B1
# Details: with cul4b_human CUL4B
row,effect of a mutation on the interaction,Variant
1,with no effect,MSRVPSPPPPAEMSSGPVAESWCYTQIKVVKFSYMWTINNFSFCREEMGEVIKSSTFSSGANDKLKWCLRVNPKGLDEESKDYLSLCLLLVSCPKSEVRAKFKFSILNAKGEETKAMESQRAYRFVQGKDWGFKKFIRRDFLLDEANGLLPDDKLTLFCEVSVVQDSVNISGQNTMNMVKVPECRLADELGGLWENSRFTDCCLCVAGQEFQAHKAILAARSPVFSAMFEHEMEESKKNRVEINDVEPEVFKEMMCFIYTGKAPNLDKMADDLLAAADKYALERLKVMCEDALCSNLSVENAAEILILADLHSADQLKTQAVDFINYHASDVLETSGWKSMVVSHPHLVAEAYRSLASAQCPFLGPPRKRLKQS [Y87C]

# Variants of: B1
# Details: with daxx_human DAXX
row,effect of a mutation on the interaction,Variant
1,with no effect,MSRVPSPPPPAEMSSGPVAESWCYTQIKVVKFSYMWTINNFSFCREEMGEVIKSSTFSSGANDKLKWCLRVNPKGLDEESKDYLSLCLLLVSCPKSEVRAKFKFSILNAKGEETKAMESQRAYRFVQGKDWGFKKFIRRDFLLDEANGLLPDDKLTLFCEVSVVQDSVNISGQNTMNMVKVPECRLADELGGLWENSRFTDCCLCVAGQEFQAHKAILAARSPVFSAMFEHEMEESKKNRVEINDVEPEVFKEMMCFIYTGKAPNLDKMADDLLAAADKYALERLKVMCEDALCSNLSVENAAEILILADLHSADQLKTQAVDFINYHASDVLETSGWKSMVVSHPHLVAEAYRSLASAQCPFLGPPRKRLKQS [Y87C]

# Variants of: B1
# Details: with ddx5_human DDX5, P17844
row,effect of a mutation on the interaction,Variant
1,with no effect,MSRVPSPPPPAEMSSGPVAESWCYTQIKVVKFSYMWTINNFSFCREEMGEVIKSSTFSSGANDKLKWCLRVNPKGLDEESKDYLSLCLLLVSCPKSEVRAKFKFSILNAKGEETKAMESQRAYRFVQGKDWGFKKFIRRDFLLDEANGLLPDDKLTLFCEVSVVQDSVNISGQNTMNMVKVPECRLADELGGLWENSRFTDCCLCVAGQEFQAHKAILAARSPVFSAMFEHEMEESKKNRVEINDVEPEVFKEMMCFIYTGKAPNLDKMADDLLAAADKYALERLKVMCEDALCSNLSVENAAEILILADLHSADQLKTQAVDFINYHASDVLETSGWKSMVVSHPHLVAEAYRSLASAQCPFLGPPRKRLKQS [Y87C]
